Drawing on the RNAGym collection of RNA variant scans (doi:10.1093/molbev/msab373), this text covers reverse-splicing fitness for 84 variants.

To fix the notation:
B1: Azoarcus group I ribozyme (parent)
chain: GUGCCUUGCGCCGGGAAACCACGCAAGGGAUGGUGUCAAAUUCGGCGAAACCUAAGCGCCCGCCCGGGCGUAUGGCAACGCCGAGCCAAGCUUCGGCGCCUGCGCCGAUGAAGGUGUAGAGACUAGACGGCACCCACCUAAGGCAAACGCUAUGGUGAAGGCAUAGUCCAGGGAGUGGCGAAAGUCACACAAACCGG

The series covers variants of B1. The series can be described thus: reverse-splicing fitness (ratio to wild type); higher = more active; in vitro selection; Mg2+ level not given. An outline of the steps:
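An in vitro group I ribozyme library with randomized positions was T7-transcribed and gel-purified. In triplicate, 10 pmol RNA in EPPS pH 7.5 was reacted with 50 pmoles of a 30-nt RNA substrate for 1 h at 37 °C across several added MgCl2 levels (1–48 mM), then stopped with EDTA. Products were reverse transcribed from a substrate-complementary primer, PCR-amplified and sequenced (HiSeq 4000). Fitness is a variant's read proportion after selection over that before, normalised to wild type.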
Take C82A A111U A120C A145C C150A C169G U176C: the reverse-splicing fitness was determined as 0.0348. For C82A A111G A120G C150A C169G U176A the value was 0.0211. For the variant C82A A111G A120G C150A C169G U176G, the reverse-splicing fitness is 0.00613. For C82U A111U A120U A145C C150U C169U U176G the value was 0.00212; for C82G A111C A120C C150U C169A U176C, 0.0129; for A120C A145U C150A U176A, 0.191. In the case of C82A A111G C150U C169A, the reverse-splicing fitness was determined as 0.011. For C82A A111G A120C C169A the value was 0.00875; for A111U A120C A145U C150A C169A, 0.00875; for C82U A111G A120C U176A, 0.0204. For A120C A145U C150G C169A the value was 0.00905.

With C82U A120C A145C C150A C169U, the reverse-splicing fitness came to 0.00777. C82A A111G A120U A145C C169G U176A: the reverse-splicing fitness came to 0.00249. The figure for C82U A111U A120U A145C C169U is 0.00314; for A111G A120G A145G U176A it is 0.0808. Regarding C82U A120C A145G C150U C169U, the reverse-splicing fitness was 0.0209.

Consider A111U A120C A145C C150G, for which the reverse-splicing fitness worked out at 0.0767. For C82A A111C A145U C169A U176G the value was 0.0095; for C82A A111G A120G A145U C150A C169G, 0.00871; for A111U A145G C169A, 0.0306. A111G A120C A145G C169A: the reverse-splicing fitness worked out at 0.0165.

On to A120G A145G C150U C169U U176G, for which the reverse-splicing fitness amounted to 0.0096.

For the variant C82G A120G C169G U176A, the reverse-splicing fitness came to 0.0234. Take C82G A111G A145U C150U C169A: the reverse-splicing fitness is 0.00966.

C82U A111U A145C C150G U176C: the reverse-splicing fitness stood at 0.0175.

As for C82G A111G C150A, the reverse-splicing fitness was 0.0393.

For the variant C82A A120G A145U C150U C169G U176A, the reverse-splicing fitness turned out to be 0.0114.

In the case of C82U A120C A145G C169G U176G, the reverse-splicing fitness is 0.00346. The figure for A111U A120C A145U C150G C169A U176G is 0.00497.

As to C82U A111U A120U A145G C150U U176C, the reverse-splicing fitness stood at 0.0115. The figure for C82G A111C A120G A145U C150A C169A U176G is 0.00581; for C82U A111G A120G A145G C150G C169G it is 0.00721.

Turning to C82G A111C A145C C150U C169U U176C, the reverse-splicing fitness came to 0.0131.

A111C A120U A145U C150A C169A U176A: the reverse-splicing fitness was found to be 0.00258. With C82A A145G C150G U176G, the reverse-splicing fitness was 0.0113.

As for C82G A111C A120U A145U C150U C169U U176G, the reverse-splicing fitness is 0.00235. With C82U A111U A120U C169U, the reverse-splicing fitness stood at 0.00477.

Regarding A111C A145C C150U C169A U176G, the reverse-splicing fitness stood at 0.00708. The figure for A120G A145G C150A C169A U176G is 0.00587; for A120U A145G C150A U176G it is 0.063; for C82A A111G A120C A145C C150G U176A it is 0.00522. For C82U A111U A120G A145G C150G U176C the value was 0.00919. For C82U A111U A120C A145C C150U C169U U176A the value was 0.015; for A111C A120C A145G C150U U176C, 0.18. Take C82G A111G A120U C150A C169A U176C: the reverse-splicing fitness worked out at 0.00424. Take A111U A145C C150G U176C: the reverse-splicing fitness was 0.218. C82G A111G C150U U176G: the reverse-splicing fitness came to 0.0512.

For A111C A145U C150A C169A, the reverse-splicing fitness was 0.0106. Turning to C82U A111C A120U A145G C150G, the reverse-splicing fitness was 0.00805. On to C82A A111U A120U A145U C150G C169A U176A, for which the reverse-splicing fitness came out at 0.00398. For C82A A120U C150U C169A, the reverse-splicing fitness was 0.00439. The figure for A120C A145U C150G U176C is 0.156; for C82A A111C A120C A145U C150A U176C it is 0.0164; for C82G A111G A120C A145G C150U C169G U176A it is 0.0174. As for C82G A111C A120U C150U U176A, the reverse-splicing fitness was 0.00878. As for A111U A120G A145U C150U C169U U176G, the reverse-splicing fitness was determined as 0.0055. On to A145G C169U U176A, for which the reverse-splicing fitness was found to be 0.123.

As for C82A A111C A120G C150G C169U U176C, the reverse-splicing fitness is 0.012. For C82A A111U C169A U176G, the reverse-splicing fitness is 0.00595. Regarding A111G A145C C169G U176A, the reverse-splicing fitness was found to be 0.0344. For C82G A111U A120C C150G C169A U176C the value was 0.0141. For C82U A111G A120G C169U U176A the value was 0.023; for C82A A111C A120G A145C C169A U176C, 0.00724; for C82A A111C A120G A145C C169A U176A, 0.00969. The figure for C82A A111G A120G A145U C150G C169G U176A is 0.00739. As to C82U A111U A120G A145G C150U C169G U176A, the reverse-splicing fitness turned out to be 0.0129.

As to C82G A111G A145U C150G C169U U176G, the reverse-splicing fitness is 0.00577. Take C82G A111U A120U A145U C150A U176C: the reverse-splicing fitness worked out at 0.00518. For C82U A111U A145G C150G C169G U176C the value was 0.0116; for C82U A111G A120G, 0.0173. For the variant C82G A111U A145U C169U U176G, the reverse-splicing fitness stood at 0.00509.

With C82A A111C A120U C150U C169G U176A, the reverse-splicing fitness was found to be 0.00669.

As to A111C A120G A145G C150A C169U U176A, the reverse-splicing fitness is 0.0227.

Consider C82A A111C C150G C169U U176G, for which the reverse-splicing fitness is 0.00629. With C82G A111U A145C C150U C169U U176A, the reverse-splicing fitness amounted to 0.0136. Turning to C82G A111U A145C C150U C169U U176G, the reverse-splicing fitness is 0.00613. For A120U A145U C150A C169G the value was 0.0282. C82G A111G A120U A145C C150G C169A U176G: the reverse-splicing fitness was found to be 0.00183. Consider A111U A145C C169G U176A, for which the reverse-splicing fitness was 0.0286. On to C82G A111C A145G C150G U176G, for which the reverse-splicing fitness was 0.00754. The figure for C82A A111G A120U A145C C150U C169U is 0.00308.

On to C82A A111U A120U A145C C169G U176C, for which the reverse-splicing fitness came to 0.00232.

Turning to C82G A111G A145U C169A U176C, the reverse-splicing fitness is 0.0135. The figure for A111G A120C C150U C169A U176C is 0.012.
